{"source": "patent US20230212319A1", "about": "“NOVEL ANTIGEN BINDING DOMAINS AND SYNTHETIC ANTIGEN RECEPTORS INCORPORATING THE SAME” (University of Southern California, priority 2020, published 2023)", "molecules": {"B1": {"name": "22165 (protein)", "chain": "MALPVTALLLPLALLLHAARPACEVQLLESGGGLIQPGGSLRLSCAASGFTFSSHAMTWVRQAPGKGLEWVSAISGSGDYTHYADSVKGRFTISRDNSKNTVYLQMNSLRAEDSAVYYCAKDEDGGSLLGHRGQGTLVTVSSGTGGGGSGGGGSGGGGSEFDIQMTQSPSSLSASVGDRVTITCKASDHINNWLAWYQQKPGQAPKLLIYGATTLETGVPSRFSGSGSGTDYTLTISSLQPEDFATYYCQQSWNTPWTFGQGTKLEIKRLEDLKNVFPPEVAVFEPSEAEISHTQKATLVCLATGFYPDHVELSWWVNGKEVHSGVCTDPQPLKEQPALNDSRYCLSSRLRVSATFWQNPRNHFRCQVQFYGLSENDEWTQDRAKPVTQIVSAEAWGRADCGFTSESYQQGVLSATILYEILLGKATLYAVLVSALVLMAMVKRKDSRGRAKRSGSGATNFSLLKQAGDVEENPGPTSATMDWIWRILFLVGAATGAHSGPEVQLVESGGGLVQAGGSLRLSCAASGRTFSMGWFRQAPGKEREFVAAITYSGGSPYYADSVKGRFTISRDNAKNTVYLQMNSLKPEDTAVYYCAANPTYGSDWNAENWGQGTQVTVSSGSGGGGSGGGGSGGGGSFEQVQLQQPGAELVKPGASVKMSCKASGYAFSSYWINWMKQKPGQGLEWIGQIYPGDGDTNYNGKFKGRATLTADTSSSTAYMQLSSLTSEDSAVYFCARSITTVVGCAMDYWGQGTSVTVSSTRIQNPDPAVYQLRDSKSSDKSVCLFTDFDSQTNVSQSKDSDVYITDKCVLDMRSMDFKSNSAVAWSNKSDFACANAFNNSIIPEDTFFPSPESSCDVKLVEKSFETDTNLNFQNLSVIGFRILLLKVAGFNLLMTLRLWSSRAKRSGSGVKQTLNFDLLKLAGDVESNPGPSRGHMTEYKPTVRLATRDDVPRAVRTLAAAFADYPATRHTVDPDRHIERVTELQELFLTRVGLDIGKVWVADDGAAVAVWTTPESVEAGAVFAEIGPRMAELSGSRLAAQQQMEGLLAPHRPKEPAWFLATVGVSPDHQGKGLGSAVVLPGVEAAERAGVPAFLETSAPRNLPFYERLGFTVTADVEVPEGPRTWCMTRKPGA"}, "B2": {"name": "21985 (protein)", "chain": "MALPVTALLLPLALLLHAARPQLQLQESGPGLVKPSETLSLTCTVSGDSISSGDYYWGWIRQPPGKGLEWIGHIYYSGVTYYNPSLKSRVTISVDTSRNQFSLKLSSVTAADTAVYYCTREDSSNWRSRGQGTLVTVSSLEDLKNVFPPEVAVFEPSEAEISHTQKATLVCLATGFYPDHVELSWWVNGKEVHSGVCTDPQPLKEQPALNDSRYCLSSRLRVSATFWQNPRNHFRCQVQFYGLSENDEWTQDRAKPVTQIVSAEAWGRADCGFTSESYQQGVLSATILYEILLGKATLYAVLVSALVLMAMVKRKDSRGRAKRSGSGATNFSLLKQAGDVEENPGPTSMDWIWRILFLVGAATGAHSFEVQLLESGGGLIQPGGSLRLSCAASGFTFSSHAMTWVRQAPGKGLEWVSAISGSGDYTHYADSVKGRFTISRDNSKNTVYLQMNSLRAEDSAVYYCAKDEDGGSLLGHRGQGTLVTVSSTRIQNPDPAVYQLRDSKSSDKSVCLFTDFDSQTNVSQSKDSDVYITDKCVLDMRSMDFKSNSAVAWSNKSDFACANAFNNSIIPEDTFFPSPESSCDVKLVEKSFETDTNLNFQNLSVIGFRILLLKVAGFNLLMTLRLWSSRAKRSGSGVKQTLNFDLLKLAGDVESNPGPSRGHMTEYKPTVRLATRDDVPRAVRTLAAAFADYPATRHTVDPDRHIERVTELQELFLTRVGLDIGKVWVADDGAAVAVWTTPESVEAGAVFAEIGPRMAELSGSRLAAQQQMEGLLAPHRPKEPAWFLATVGVSPDHQGKGLGSAVVLPGVEAAERAGVPAFLETSAPRNLPFYERLGFTVTADVEVPEGPRTWCMTRKPGA"}, "B3": {"name": "22147 (protein)", "chain": "MALPVTALLLPLALLLHAARPACEVQLLESGGGLIQPGGSLRLSCAASGFTFSSHAMTWVRQAPGKGLEWVSAISGSGDYTHYADSVKGRFTISRDNSKNTVYLQMNSLRAEDSAVYYCAKDEDGGSLLGHRGQGTLVTVSSGTGGGGSGGGGSGGGGSEFDIQMTQSPSSLSASVGDRVTITCRASQDISNYLNWYQQKPGKAVKLLIYYTSILHSGVPSRFSGSGSGTDYTLTISSLQPEDFATYFCQQGNTLPWTFGGGTKVEIKLEADVSPKPTIFLPSIAETKLQKAGTYLCLLEKFFPDVIKIHWQEKKSNTILGSQEGNTMKTNDTYMKFSWLTVPEKSLDKEHRCIVRHENNKNGVDQEIIFPPIKTDVITMDPKDNCSKDANDTLLLQLTNTSAYYMYLLLLLKSVVYFAIITCCLLRRTAFCCNGEKSRAKRSGSGATNFSLLKQAGDVEENPGPTSMDWIWRILFLVGAATGAHSGPQVQLQESGGGLAQAGGSLRLSCAASGRTFSMGWFRQAPGKEREFVAAITYSGGSPYYASSVRGRFTISRDNAKNTVYLQMNSLKPEDTAVYYCAANPTYGSDWNAENWGQGTQVTVSSGSGGGGSGGGGSGGGGSFEVQLVESGGGLVKPGGSLKLSCAASGFAFSIYDMSWVRQAPGKGLEWVAYISSGGGTTYYPDTVKGRFTISRDNAKNTLYLQMSSLRAEDTAMYYCARHSGYGSSYGVLFAYWGQGTLVTVSSTRPHTKPSVFVMKNGTNVACLVKEFYPKDIRINLVSSKKITEFDPAIVISPSGKYNAVKLGKYEDSNSVTCSVQHDNKTVHSTDFEVKTDSTDHVKPKETENTKQPSKSCHKPKAIVHTEKVNMMSLTVLGLRMLFAKTVAVNFLLTAKLFFLRAKRSGSGVKQTLNFDLLKLAGDVESNPGPSRGHMTEYKPTVRLATRDDVPRAVRTLAAAFADYPATRHTVDPDRHIERVTELQELFLTRVGLDIGKVWVADDGAAVAVWTTPESVEAGAVFAEIGPRMAELSGSRLAAQQQMEGLLAPHRPKEPAWFLATVGVSPDHQGKGLGSAVVLPGVEAAERAGVPAFLETSAPRNLPFYERLGFTVTADVEVPEGPRTWCMTRKPGA"}, "B4": {"name": "22162 (protein)", "chain": "MALPVTALLLPLALLLHAARPDIQMTQSPSSLSASVGDRVTITCKASDHINNWLAWYQQKPGQAPKLLIYGATTLETGVPSRFSGSGSGTDYTLTISSLQPEDFATYYCQQSWNTPWTFGQGTKLEIKRLEDLKNVFPPEVAVFEPSEAEISHTQKATLVCLATGFYPDHVELSWWVNGKEVHSGVCTDPQPLKEQPALNDSRYCLSSRLRVSATFWQNPRNHFRCQVQFYGLSENDEWTQDRAKPVTQIVSAEAWGRADCGFTSESYQQGVLSATILYEILLGKATLYAVLVSALVLMAMVKRKDSRGRAKRSGSGATNFSLLKQAGDVEENPGPTSATMDWIWRILFLVGAATGAHSGPEVQLLESGGGLVQPGGSLRLSCAASGSIASIHAMGWFRQAPGKEREFVAVITWSGGITYYADSVKGRFTISRDNSKNTVYLQMNSLRPEDTALYYCAGDKHQSSWYDYWGQGTLVTVSSGSGGGGSGGGGSGGGGSFEQVQLQQPGAELVKPGASVKMSCKASGYAFSSYWINWMKQKPGQGLEWIGQIYPGDGDTNYNGKFKGRATLTADTSSSTAYMQLSSLTSEDSAVYFCARSITTVVGCAMDYWGQGTSVTVSSTRIQNPDPAVYQLRDSKSSDKSVCLFTDFDSQTNVSQSKDSDVYITDKCVLDMRSMDFKSNSAVAWSNKSDFACANAFNNSIIPEDTFFPSPESSCDVKLVEKSFETDTNLNFQNLSVIGFRILLLKVAGFNLLMTLRLWSSRAKRSGSGVKQTLNFDLLKLAGDVESNPGPSRGHMTEYKPTVRLATRDDVPRAVRTLAAAFADYPATRHTVDPDRHIERVTELQELFLTRVGLDIGKVWVADDGAAVAVWTTPESVEAGAVFAEIGPRMAELSGSRLAAQQQMEGLLAPHRPKEPAWFLATVGVSPDHQGKGLGSAVVLPGVEAAERAGVPAFLETSAPRNLPFYERLGFTVTADVEVPEGPRTWCMTRKPGA"}}, "type_in_all_cases": "cell-based", "key": {"[1]": {"tested_on": "RAJI cells", "test": "JNG assay, co-culture with RAJI cells", "settings": "JNG cells expressing construct, co-culture with Raji", "summary_of_the_method": "(§1)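 Jurkat-NFAT-GFP (JNG) cells stably expressing SAR constructs via lentiviral transduction and puromycin/blasticidin selection were cocultured with target cells at E:T ~1:2 for ~4–18 h. NFAT-driven GFP was measured by FACS versus parental JNG cells; scores +/- to 5+ denote ~5–50% GFP-positive cells.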"}, "[2]": {"tested_on": "L363 cells", "test": "JNG assay, co-culture with L363 cells", "settings": "co-culture with L363", "summary_of_the_method": "as §1"}, "[3]": {"tested_on": "Nalm6 cells", "test": "JNG assay, co-culture with Nalm6 cells", "settings": "co-culture with Nalm6", "procedure": "Cellular supernatant is collected and assayed for the induction of cytokines (e.g., IL2).\nJNG (Jurkat cells expressing EGFP under an NFAT promoter) were infected with lentiviral vectors encoding different single chain and multi-chain SARs by spinfection in the presence of 8 µg/ml of Polybrene® (Sigma, Catalog no. H9268). The Jurkat-NFAT-GFP cells are engineered in such a way that the IL-2 promoter, which carries NFAT binding sites, is cloned upstream of the GFP gene. These cells have been used to study signaling via TCR and CAR. The different SARs were stably expressed in Jurkat NFAT-GFP cells by lentiviral mediated gene transfer, followed by selection with puromycin or blasticidin. No drug selection was used in case the construct lacked an antibiotic resistance gene. The SAR-expressing Jurkat-NFAT-GFP cells were cocultured with the target cells at E:T ratio of approximately 1:2 for approximately 4 hours to 18 hours. When the interaction between SIRs and their target antigen results in activation of the NFAT pathway, GFP expression is induced. […] GFP expression was monitored by FACS analysis. The Jurkat-NFAT-GFP (parental) cells were used as control. The structure of different constructs can be determined based on their names. For example, the construct CD8SP-CD19-hu-mROO5-1-vL-[hTCRa-C SDVP]-F-F2A-Spe-IgHSP-Apa-CD20-vHH-2HCD25-G4S-CDl9-hu-mROO5-1-vH-Mlu-[hTCRb-KACIAH]-F-P2A-PAC has the following modules from 5′ to 3′ direction: a CD8 signal peptide (CD8SP), the CD19 targeting hu-mROO5-1 vL fragment (CD19-hu-mROO5-1), Xho1 cloning site, human TCRa constant chain containing CSDVP mutations (hTCRa-CSDVP), Furine cleavage site (F), F2A ribosomal skip sequence (F2A), SpeI site, human IgH signal peptide (IgHSP), Apa I restriction enzyme site, camelid CD20-2HCD25-VHH module targeting CD20, BamHI restriction enzyme site, Glycinex4-serine linker (G4S), BstI restriction enzyme site, CD19-hu-mROO5-1-vH fragment targeting CD19, Mlu I restriction enzyme site, human TCRb constant chain containing KACIAH mutations ([hTCRb-KACIAH]), Furine cleavage site (F), P2A ribosomal skip sequence and Puromycin resistance gene (PAC). The sequence of the other constructs in the table can be similarly determined from their names and by referring to the different Tables of this disclosure that provide the names and SEQ ID NO of the different modules. Alternatively, the composition and modular architecture of the different SAR constructs can be determined from their sequences by bioinformatics tools, including using nucleic acid and amino acids homology searches. A SAR is considered positive in the assay in case the SAR expressing Jurkat-NFAT-GFP cells show greater % GFP positive cells when cultured with the target cell line as compared to parental Jurkat-NFAT-GFP cells. The signs +/-, +, 2+ etc. after the name of the cell lines indicate the relative degree of positivity on the Jurkat-NFAT-GFP assay as measured by the % GFP positive cells after culture of the SAR expressing Jurkat-NFAT-GFP cells with that cell line above the % GFP cells observed in parental Jurkat NFAT-GFP cells serving as controls. In general, the number +/-, +, 2+, 3+, 4+, 5+ refer to approximately 5%, 10%, 20%, 30%, 40% and 50% GFP positive cells. The % of GFP induction in the above assay is dependent not only the relative strength of the SAR but also, among other factors, on the relative level of expression of the SAR in the JNG cells and the relative level of expression of the target antigen in the target cell line. To control for the difference in gene transduction efficiency of the different SAR constructs, the experiment was conducted with JNG cells transduced with SAR constructs co-expressing a drug resistance gene (e.g., puromycin or PAC) followed by drug selection to generate a stable population of SAR-expressing cells. […]"}}}
{"molecule": "B1", "values": [{"measurement": "NFAT-GFP ASSAY: Raji", "setting": "[1]", "value": "Raji (+), L363 (+) (refer to approximately 5%, 10%, 20%, 30%, 40% and 50% GFP positive cells)"}, {"measurement": "NFAT-GFP ASSAY: L363", "setting": "[2]", "value": "Raji (+), L363 (+) (refer to approximately 5%, 10%, 20%, 30%, 40% and 50% GFP positive cells)"}]}
{"molecule": "B2", "values": [{"measurement": "NFAT-GFP ASSAY: Nalm6", "setting": "[3]", "value": "+/- (refer to approximately 5%, 10%, 20%, 30%, 40% and 50% GFP positive cells)"}]}
{"molecule": "B3", "values": [{"measurement": "NFAT-GFP ASSAY: Raji", "setting": "[1]", "value": "+ (refer to approximately 5%, 10%, 20%, 30%, 40% and 50% GFP positive cells)"}, {"measurement": "NFAT-GFP ASSAY: L363", "setting": "[2]", "value": "+ (refer to approximately 5%, 10%, 20%, 30%, 40% and 50% GFP positive cells)"}]}
{"molecule": "B4", "values": [{"measurement": "NFAT-GFP ASSAY: Nalm6", "setting": "[3]", "value": "5+ (refer to approximately 5%, 10%, 20%, 30%, 40% and 50% GFP positive cells)"}]}
